Numbering of substitutions follows the chain as printed.

From PMC8632329 (mAbs, 2021) come the findings set out here.

Assay [1] concerns the target mVISTA-COMP-his (Mus musculus, UniProt Q9D659). Description: SPR. (SPR reads the build-up and loss of mass on a sensor chip optically.)
Assay [2] concerns the target T1, hVISTA-COMP-his (Homo sapiens, UniProt Q9H7M9). Description: SPR.
Target sequence in this assay (Q9H7M9 whole entry, looked up, tested part not stated): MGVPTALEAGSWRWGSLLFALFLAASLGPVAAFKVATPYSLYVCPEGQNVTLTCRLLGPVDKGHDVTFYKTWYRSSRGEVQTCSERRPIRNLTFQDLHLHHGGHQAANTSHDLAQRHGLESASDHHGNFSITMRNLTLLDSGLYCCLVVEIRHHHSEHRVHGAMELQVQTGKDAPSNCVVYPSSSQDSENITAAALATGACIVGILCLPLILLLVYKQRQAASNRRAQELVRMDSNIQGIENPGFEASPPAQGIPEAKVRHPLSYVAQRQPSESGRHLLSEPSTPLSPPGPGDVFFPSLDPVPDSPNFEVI
Assay [3] has as its target hVISTA-Fc (Homo sapiens (Human)., UniProt Q9H7M9). Put plainly: SPR.
Assay [4] concerns the target T1, hVISTA-COMP-his.
Target sequence in this assay (Q9H7M9 33-168): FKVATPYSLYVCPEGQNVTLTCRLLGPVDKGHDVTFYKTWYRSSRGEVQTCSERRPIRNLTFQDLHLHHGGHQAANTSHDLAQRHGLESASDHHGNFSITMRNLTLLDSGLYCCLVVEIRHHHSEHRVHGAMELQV

mVISTA-COMP-his, sequence (Q9D659 whole entry, looked up, tested part not stated): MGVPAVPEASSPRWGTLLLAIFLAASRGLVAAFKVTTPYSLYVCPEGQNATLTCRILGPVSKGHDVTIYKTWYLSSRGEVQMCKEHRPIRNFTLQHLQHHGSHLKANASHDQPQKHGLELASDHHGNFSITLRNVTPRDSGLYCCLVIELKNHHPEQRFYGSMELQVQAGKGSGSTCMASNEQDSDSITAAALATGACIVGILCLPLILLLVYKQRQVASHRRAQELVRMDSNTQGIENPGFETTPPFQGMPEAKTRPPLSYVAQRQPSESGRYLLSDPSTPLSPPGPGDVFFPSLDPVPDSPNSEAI
hVISTA-Fc, sequence (Q9H7M9 33-194): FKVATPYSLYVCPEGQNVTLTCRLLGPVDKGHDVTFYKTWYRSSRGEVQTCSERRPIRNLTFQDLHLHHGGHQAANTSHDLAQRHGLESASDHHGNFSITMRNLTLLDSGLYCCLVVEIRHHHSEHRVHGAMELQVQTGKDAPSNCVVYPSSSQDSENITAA

B1: murine anti-hVISTA mAb 7E12 (antibody, V domains shown)
VH: DVHLQESGPGLVKPSQSLSLTCSVTGYSITSGYYWNWIRQFPGNKLEWMGYISYDGNNNYNPSLKNRISITRDTSKNQFFLKLNSVTTEDTATYYCARGDYGSEAMDYWGQGTSVTVSS
VL: DIRVTQSPASLAVSLGQRATISCRASKSVSTSGYSYMNWYQQKPGQPPQLLIYLASNLESGVPARFSGSGSGTDFTLNIHPVEEEDAAIYYCQHSRELPWTFGGGTKLEIK
Turning to B1, the binding result in assay [1] is given as “no binding”. This molecule showed a Kd in assay [2] of 0.44 nM.

B2: anti-hVISTA nanobody hVISTANb7 (VHH)
VHH: QVQLQESGGGLVYPGGSLRLSCTASGFAFTNAYMNWVRQAPGKGAEWVSGITRDSNRTSYADSVKGRFTISRDNAKNTLYLQMDSLKSDDTALYYCNAEPSGWWLDDDYWGQGTQVTVSS
In assay [3], B2 showed a Kd of 7.5 nM.

B3: Nb3 [hVISTANb3] (VHH)
VHH: QVQLQESGGGLVHPGGSLRLSCAASGSVGTIFSMGWFRQAPGVQREMVATITNSGETNYAAFVKGRFTITRDNAQNTVYLQMNSLKPEDTAAYYCNAFDYVGGRTYELPYWGQGTQVTVSS
In the case of B3, the binding result in assay [4] was “binds”.

B4: Nb2 [hVISTANb2] (VHH)
VHH: B3 VHH with T70S, Q75E, V78M, Q81E, S84D
In the case of B4, in assay [4], the binding result is on record as “binds”.

B5: anti-hVISTA nanobody hVISTANb1 (VHH)
VHH: B3 VHH with H13Q, T70S, Q75E
B5 had a Kd in assay [3] of 11 nM.

B6: Nb6 [hVISTANb6] (VHH)
VHH: B3 VHH with V28G, G29V, T70S, T77A
On to B6, for which the binding result in assay [4] is on record as “binds”.

B7: murine anti-hVISTA mAb 7G5 (antibody, V domains shown)
VH: QIQLVQSGPELKKPGETVKISCKASGYTFTNYGMNWVKQAPEKGLKWMGWINTYTGEPTYADDFKGRFAFSLETSASTAYLQINNLKNEDTATYFCARRSNPWPNDYWGQGTSLTVSS
VL: DIQMTQSPSSFSASLGERVSLTCRASQEISGYLSWLQQKPDGTIKRLIYAASTLDSGVPKRFSGSRSGSDYSLTISSLESEDFADYYCLQYASYPWTFGGGTKLEIK
Take B7: in assay [1], the binding result is reported as “no binding”. The molecule further displayed a Kd in assay [2] of 0.14 nM.

B8: rat anti-hmVISTA mAb 7C7 (antibody, V domains shown)
VH: EVQLVESGGGLVQPGRSLKLSCVASGFTFNKYWMSWTRQAPGKGLEWVASITNSGGNTYYPDSVKGRFTISRDNAQNTLYLQMNSLRSEDTATYYCTLGVDYWGQGAMVTVSS
VL: DVVMTQTPPSLSVTIGQSVSISCKSSQSLVYSDGKTYLHWLLQSSGRSPKRLIYQVSNLASGVPDRFSGTGSQKDFTLKISRVEAKDLGVYYCAQTTHFPYTFGAGTKLEMK
Consider B8, for which the values for the dissociation constant Kd in assay [1] and in assay [2] were 51 nM and 49 nM, respectively.

Usually Kd stands for the constant that tells how readily two partners part at equilibrium.
